Test results from FireProtDB (doi:10.1111/febs.13659).

B1: Cytosolic beta-glucosidase, O61594 (parent)
chain: MKLLVVLSLVAVACNASIVRQQRRFPDDFLFGTATASYQIEGAWDEDGKGENIWDYMVHNTPEVIRDLSNGDIAADSYHNYKRDVEMMRELGLDAYRFSLSWARILPTGMANEVNPAGIAFYNNYIDEMLKYNITPLITLYHWDLPQKLQELGGFANPLISDWFEDYARVVFENFGDRVKMFITFNEPREICFEGYGSATKAPILNATAMGAYLCAKNLVTAHAKAYYLYDREFRPVQGGQCGITISVNWFGPATPTPEDEMAAELRRQGEWGIYAHPIFSAEGGFPKELSDKIAEKSAQQGYPWSRLPEFTEEEKAFVRGTSDLIGVNHYTAFLVSATERKGPYPVPSLLDDVDTGSWADDSWLKSASAWLTLAPNSIHTALTHLNNLYNKPVFYITENGWSTDESRENSLIDDDRIQYYRASMESLLNCLDDGINLKGYMAWSLMDNFEWMEGYIERFGLYEVDFSDPARTRTPRKAAFVYKHIIKHRVVDYEYEPETMVMTIDEGH

Variants of: B1
Settings: Spodoptera frugiperda, pH 6, Thermal, Potassium phosphate 10mM, transition: 2, structure 5CG0, whole UniProt chain shown
[1] = Differential Scanning Fluorimetry

Variant | Tm [1] [°C] | change of melting temperature, mutant - wild type (higher = more stable) [1] [°C] | Tm (CD) [°C] | change of melting temperature, mutant - wild type (higher = more stable) (CD) [°C] | ddG of mutation (higher = less stable) (CD) [kcal/mol] | unfolding enthalpy (calorimetric) (CD) [kcal/mol] | unfolding free energy (CD) [kcal/mol]
S337F | 40.4 | -4.58 |  |  |  |  | 
A263F | 40.6 | -4.4 | 39.6 | -6.4 | 0.43 | 44.2 | 22.8
L100A | 47.6 | 2.6 | 46.4 | 0.4 | -0.81 | 53 | 24
E265A | 44.9 | -0.1 | 44.9 | -1.1 | -0.43 | 51.1 | 23.6
L389A | 46.6 | 1.6 | 46.4 | 0.4 | -0.67 | 81.1 | 23.9
S247A | 45.3 | 0.3 |  |  |  |  | 
Y390A | 45.1 | 0.1 | 43 | -3 | 0.34 | 72.5 | 22.9
Y420A | 37.2 | -7.8 | 37 | -9 | 1.42 | 47.8 | 21.8
D260A | 40.8 | -4.2 |  |  |  |  | 
V336F | 34 | -11 | 30 | -16 | 2.14 | 51.6 | 21.1
N249A | 39 | -6 | 38.5 | -7.5 | 0.94 | 48.2 | 22.3
L335A | 40 | -5 | 38.5 | -7.5 | 0.84 | 55.2 | 22.4
M262F | 45 | 0 | 45.7 | -0.3 | -0.53 | 91.7 | 23.7
K366A | 41 | -4 | 41.5 | -4.5 | 1.25 | 74.6 | 22
F334A | 42.5 | -2.5 | 42.9 | -3.1 | 1.11 | 72.5 | 22.1
E261A | 46.2 | 1.2 |  |  |  |  | 
S358A | 42 | -3 |  |  |  |  | 
L350A | 43.8 | -1.2 | 43.5 | -2.5 | 0.7 | 61.4 | 22.5
N391A | 46 | 1 | 44.4 | -1.6 |  |  | 
F251A | 42.4 | -2.6 | 42.2 | -3.8 | 0.67 | 52.3 | 22.5
